The values below are quoted from earlier work in PMC3376167.

For this series, the target named is ARNT PAS-B (Homo sapiens) (UniProt P27540).
Sequence of ARNT PAS-B (Homo sapiens) (P27540 356-470): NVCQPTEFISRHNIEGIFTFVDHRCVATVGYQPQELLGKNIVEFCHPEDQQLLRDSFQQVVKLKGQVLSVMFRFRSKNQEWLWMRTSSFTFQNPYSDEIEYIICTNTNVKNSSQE

Sequence of HIF-2α PAS-B (Q99814 239-350): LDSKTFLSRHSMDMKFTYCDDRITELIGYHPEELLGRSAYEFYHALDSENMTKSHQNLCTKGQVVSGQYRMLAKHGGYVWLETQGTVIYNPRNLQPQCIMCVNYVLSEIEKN

HIF-2α PAS-B (from UniProt Q99814): the Kd was 120 µM.
